From publication PMC11496930, “Targeting RSV-neutralizing B cell receptors with anti-idiotypic antibodies” (Cell Reports, 2024)

B1: 2C1 recombinant IgG (human constant regions) (antibody, V domains shown)
VH: QVQLQQSGAELVRPGASVTLSCKASGYIFTDYEIHWLKQTPVHGLEWIGTSDPETGGFAYTQKFKGKAILTADKSSSTAYMELRSLTSEDSAVYYCTRRPYYGSGAWFAYWGQGTLVTVSA
VL: DIVMTQSHKFMSTSVGDRVSITCKANHDVNIAVAWYQQKPGQSPKLLIYSASYRYTGVPDRFTGSGSGTDFTFTISSVQAEDLAVYYCQQHYDTPRTFGGGTKLEIK
notes: also called 2C1-IgG; 2C1 IgG; source: 293-6E cells, purified (Protein A)
B2: 1D3 recombinant IgG (human constant regions) (antibody, V domains shown)
VH: QVQIQQSGAELMRPGASVKLSCKATGYTFTGYWIEWVKQRPGHGLEWIGEILSGRGTTNYNEKFKGKATFTADTYSNTAYMQLSSLTTGDSAIYYCARGGFLYGDGPFDYWGQGTTLTVSS
VL: DILLTQSPAILSVSPGERVSFSCRASQNIDTHIHWYQQRTNGSPRLLIKYASESISGIPSRFSGSGSGTDFTLTINSVESEDIADYYCQQSNSWPFTFGSGTKLEIK
notes: also called 1D3-IgG; 1D3 IgG; source: 293-6E cells, purified (Protein A)

Biological target: ADI-19425 Fab (human, UniProt P0DOY2)
Sequence (VH, as listed by the source, chain 1 of 2): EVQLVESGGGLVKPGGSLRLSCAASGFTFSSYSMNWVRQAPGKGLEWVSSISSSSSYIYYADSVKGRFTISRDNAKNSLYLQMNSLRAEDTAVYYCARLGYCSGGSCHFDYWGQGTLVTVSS
Sequence (VL, as listed by the source, chain 2 of 2): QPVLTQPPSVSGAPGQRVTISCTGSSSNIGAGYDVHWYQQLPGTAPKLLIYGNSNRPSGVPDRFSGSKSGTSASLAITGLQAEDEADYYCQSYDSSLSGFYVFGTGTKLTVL
Assay: BLI; 1D3 IgG or 2C1 IgG (67 nM) on anti-human IgG capture sensors; ADI-19425 Fab in serial dilutions from 250 nM to 0 nM; KB buffer, 30°C; 1:1 binding model
Settings: both partners purified

| Binder | Kd |
| --- | --- |
| B1 | 1.5 nM |
| B2 | 0.4 nM |
